Details: Escherichia coli (strain K12); pH 5.5; 25 °C; GdnHCl; Fluorescence; Sodium acetate 20 mM; NaCl 0.1 M; reversible: yes; whole UniProt chain shown

B1: Ribonuclease HI wild type, P0A7Y4 (protein)
chain: MLKQVEIFTDGSCLGNPGPGGYGAILRYRGREKTFSAGYTRTTNNRMELMAAIVALEALKEHCEVILSTDSQYVRQGITQWIHNWKKRGWKTADKKPVKNVDLWQRLDAALGQHQIKWEWVKGHAGHPENERCDELARAAAMNPTLEDTGYQVEV
denaturant m value: 5.17 kcal/mol/M
denaturant midpoint (higher = more stable): 1.79 M
unfolding free energy: 9.26 kcal/mol

Source: FireProtDB (doi:10.1111/j.1432-1033.1991.tb16033.x)
